Data from publication PMC6208443 (2018).
Each block holds one binder with its values, some of them ahead of it. Square brackets hold non-standard residues; d marks the D form. Ends that are not written are not given here. Lys(Me3) = C[N+](C)(C)CCCC[C@H](N)C(=O)O; Lys(Me2) = CN(C)CCCC[C@H](N)C(=O)O; Lys(Me) = CNCCCC[C@H](N)C(=O)O

Tests used:
Assay in all cases: ITC
[1] = molecular target: T1, RsAGDP1 AGD12 (residues 26–180) (Raphanus sativus)
T1 chain: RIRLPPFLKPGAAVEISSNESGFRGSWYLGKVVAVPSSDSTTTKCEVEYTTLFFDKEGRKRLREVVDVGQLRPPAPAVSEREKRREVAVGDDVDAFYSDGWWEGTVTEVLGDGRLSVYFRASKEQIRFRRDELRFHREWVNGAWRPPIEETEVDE

[2] = molecular target: RsAGDP1 AGD34
[3] = molecular target: RsAGDP1 AGD56

Kd [1]: 103 µM
B1: H3K4me3K9me2 peptide (peptide)
chain: ART[Lys(Me3)]QTAR[Lys(Me2)]STGGKA

Kd [2]: 10.1 µM | Kd [1]: 84.7 µM | Kd [3]: 50 µM
B2: H3K9me1 peptide (ITC) (peptide)
chain: ARTKQTARKSTGGKA
modifications: monomethyl-lysine at K9

Kd [1]: 25.5 µM
B3: H3K4me2K9me2 peptide (peptide)
chain: ART[Lys(Me2)]QTAR[Lys(Me2)]STGGKA

Kd [1]: 23.4 µM
B4: H3K4me1K9me2 peptide (peptide)
chain: ART[Lys(Me)]QTAR[Lys(Me2)]STGGKA

Kd [3]: 26.2 µM
B5: H3K9me2 peptide (ITC) (peptide)
chain: ARTKQTARKSTGGKA
modifications: dimethyl-lysine at K9

Kd [2]: 10.7 µM | Kd [1]: 101 µM | Kd [3]: 52.9 µM
B6: H3K9me3 peptide (ITC) (peptide)
chain: ARTKQTARKSTGGKA
modifications: trimethyl-lysine at K9
